This note sets out measurements from the DeepSol protein solubility set.

The nature of this data set: soluble on expression in E. coli; label from the status in PepcDB or PDB records.
For the sequence “MAERLLQSMSRVAGRCHPDCVKASDEQEDYHASQNAALVAVNLISSARLILKLDAEFTEYSAQFLMDNAGKEDDPGEVDQQRNQVTTENCLRYLAENVWTKKENGQGGMDQQRPVLTVKDCLELAFKKGLPRREHWAHLGCTFKAPPFACQIPRVPVKGEVVEVKTFDEAFKLLVHQPIGAKLHLFSPQIDNVGEGVYKGLTTGNETHYVGLRDVLIASVEEFEGDSVAIVKICYKKKLSFIKVSLSVRFLSVAHDGDKSKFIAPTGLLVDFCVPRLSIN”, the “soluble on expression in E. coli” value is given as “soluble”. Turning to “GPGPAIGEVIGISVNDPRVKEIAEFALKQHAEQNLILAGVDAGQIIKGIPHWDNYYNLILSAKHSPHEFSKFYNVVVLEKASDNSLKLVAFVPLF”, the “soluble on expression in E. coli” value was “soluble”. “MSLSENPIASVRLLRLQREEASLQQYRDNIGALKSQLTKNETLLDGISANLRDARDLLVAAANQPPTDDLKAMASPLVSLRDSILYAANTKDSEGRYMFSGSAVNNAAIVVDDTQPAGSRYRYNGNGDRQRVTVGEGVTEASNVTLESMAPLLNQLDKAIATLQSPTLDSKDPAVGATIREVMGGVDTALDRVGGTISELGGAQNVLKTLDGNHDSLSLANQESIIELGSLDYGTAYIAMNNLSMALQTSQKAYGKVSQLTLFDVIEGHHHHHH”: the “soluble on expression in E. coli” value was “soluble”. Then “SQIPASEQETLVRPKPLLLKLLKSVGAQKDTYTMKEVLFYLGQYIMTKRLYDEKQQHIVYCSNDLLGDLFGVPSFSVKEHRKIYTMIYRNLVVVNQQESSDSGTSVSENHHHHHH”, with “soluble”; and “KKNYALSFNANVGFNKNKVKSLGSLMDYSADSGWASTDIQSDFKVQPGHSVGEIYGFVSDGRYEVSDFEGFIDGKWVLKAGVADASDIIGEKYLRPGAMKLKNVDGSEDNKVTKDDQKVIGDTNPFCSGGFSVNARVYGFDLTANFTYSIGNDIYNANKIEYTSSSKYKYRNMIDVMAEEKRWTNLNADGTICNDPTQLAAMNANTSMWSPWTQKYVLTDWAVEDGSFLRLATLSIGYTLPQTLTRKVGIQNLRFYATGYNLFCITNYSGFDPEVSTRTKSALTPGVDYSAYPRSRQYVIGLNLTF”, with “not soluble”. Turning to “MVDKLKQQNCTISTCESLTAGLMAATIANLPGSSQVLRGGLITYATDSKVSVAGVPGATVEEHGPVSWQCAEAMAIGAKRQFQSQWAVSLTGVAGPATQCGQPVGTVWIGVALPNGTVKSKLVADILCGPGQVVAGDRQTIRLAAVRAAAMWITDLLGLEYTNEN”, the “soluble on expression in E. coli” value is “not soluble”. Then “TVEKSVVFKAEGEHFTDQKGNTIVGSGSGGTTKYFRIPAMCTTSKGTIVVFADARHNTASDQSFIDTAAARSTDGGKTWNKKIAIYNDRVNSKLSRVMDPTCIVANIQGRETILVMVGKWNNNDKTWGAYRDKAPDTDWDLVLYKSTDDGVTFSKVETNIHDIVTKNGTISAMLGGVGSGLQLNDGKLVFPVQMVRTKNITTVLNTSFIYSTDGITWSLPSGYCEGFGSENNIIEFNASLVNNIRNSGLRRSFETKDFGKTWTEFPPMDKKVDNRNHGVQGSTITIPSGNKLVAAHSSAQNKNNDYTRSDISLYAHNLYSGEVKLIDDFYPKVGNASGAGYSCLSYRKNVDKETLYVVYEANGSIEFQDLSRHLPVIKSYN”, with “soluble”; and “MGSDKIHHHHHHMASPINESRIGYLYEAVRSGTVRAAADYLDVAPSAVSRQIALLEEELAIALVERNKRGVRPTEAGALLIEYFRQQRSHQGDLVAKLQEIRGLRRGTIVVVMGEGFASTMVGGPIKQFCEAYPEISITMDLCSTNEVMRRVSEDEADIGLVFNPSSDSKIVSRAGSRQPMHAIVSPAFPLVGKVKSVTLQDLMPYPMALTHPEHGTRRLVDAAMLLDKVRLTPAITTNSVNVLKLFAKSNLGFTLLAPIAIAPELAAGELVALPVDNRLLESSEAHLVTRAGRQLSPAANRLLNRLKAQIHKYDEYGAESGGQASLATQ”, with “not soluble”. The result for “MTHQKRLSVPKSWKVGRKGNKWISTTRPGPHSQARSLPLGLIIRDVLKLVDNNREGKRILSEGKVLVDGISRKDLRFPVGLFDVITLPLVNEAYRMLQDEKGRLVLYKLNETNVNKLCRINNKTTVKGGKIQLNLNDGTNILGSNDYGTKDSLILSIPDKHVVKHLKFEVGNLAMVIGGQHSGETGKIMEIREVKSSRHNTVMISGETDFETIEDYVIVIGEDKPEIRLGGEISELEHHHHHH” reads “soluble”; that for “MALEKLLKVQERLWAPEDLRKKANLQDYAAEYRKSLEDPEGFWGAWARRFHWEKPFEKVLEWTLPEHRWFLGGTTNAVYNALERNVERGLRNKVALLYLAEDGREEKLTYGELLDRVRRLATGLRRLGVGKGDRVVIYMPLTLEGVLAMLATAYIGAIHSVVYAGLGVSALRERILDAQAKLLIAGDVSFRRGKGVDLRSIAEEAIRDLPLKVVWFQRAYKAELAEGHYDFHELLWGNPPEARAEMVDAEHPLFILYTSGSTGKPKGVVHVHGGYMVGTTYHLRTFFDVKDEDVFWATSDIGWIVGHSYIVYAPLLEGITSVLREGAPDHPDPGALWQAVERYRVNVMFTAPTAVRMFMKYGPEWPRKYDLSSLRLLAVAGEPLNPEALKWAYEHLVDGGRRGFVADNWWQTELGGPTLGTPLVLPAKPGFAGVALPGVEAEVVDEEGRPVPPGQGGLLVLKRPFPHMMRTVWGNHERYLRYWQEVPGGVYASGDVASKDEEGYFSVLGRADDVLNVAGHRIGTADVESALVSHPAVAEAAVIGVPDPLKGEAIKAFVVLRLGQTPSEELKEALVQHVRRELGPIATPSEVVFLDKLPKTRSGKILRRLLKAQALGKDPGDLSTLEE”, “soluble”. For the sequence “MILQEAKIRAKELEIGAKSKYENETSKVIKEYESYLIKLEKQEAKNQQRLERETQQLEEERRRINHKQASLSGMIEELEKLKGDYRSKLTESLEILSRVAGLTQEEAKELALAKATEESRAQIAQIVRKYESEAKEEGRKRANYILAQATTRFAGEFAAERLINVVNLPNDELKGRIIGKEGRNIKTLEMLSGVDVIIDDTPGAIVLSSFNLYRRAIATRTIEALVEDGRIQPARIEEVYKKVEQEFEEKVLEEGEGIVLDMELGYVHPELKKLIGRLKYRASYGQNALGHSLEVANLAGVIAGELGGDVKLAKRAGLLHDIGKALTHDFGGSHVDLGAEVCSRYKEHPVVINAIFAHHGHEEAKSIESAAVCAADALSAARPGARREVLESFLKRVQEIEKIAMEKLGVRQAYAINAGREVRVIVNADLINDEESVLLAQEIAKEIETKVQYPGEIKVSVIREVRAVEFAK”, the “soluble on expression in E. coli” value was “not soluble”. Then “MGSDKIHHHHHHMSSADLLAPYRGPLTVEQVATGMNAATANARRLAQDARLLLANKRWPTAASLAALSIEESGKVVILRRFVTANTDDIKRLWKEYRTHTKKNINWILPELVAKGARRLEDFKPIVDSASDHPDILDAMKQIGFYTDCLGKTNWSRPTEVVDETLAKNLVNAAEVLSPDRNISVRELELWAEHMGPVWNKNLDWMKQALVNWYGAMQAEGLMPAGSNKMQAFVKEGLATDQAKQIGREV”, with “not soluble”; and “MGSDKIHHHHHHMKVVKFGGSSLATGNNVNKALNIIKNDSSRQVIVVSAPGKRTDDDIKVTDLLITYAYTSLRSNNYDDTVEKIFRRYELIAQYFDLPESDLTKIKRLLLTLPTYDYPNADYRMATFKAHGERLNAILIAKILNHQGIKTRYLEPKDVGLIVTGTPNNAEVNPETYVNLKRINLKNNEKIIFPGFYGITPSGHIATFSRGGSDITGAILARGFDAELYENFTDVDAIFSANPNIVTNPAPIKKMTYQEMRELSYAGFSVFHDEALIPAIQGEIPVNVKNTNDPEKPGTLIVPEDGFIPKHTITGIAGGKNFAALYLRKYMLNKGAGFTLKLMEIFDRHHVSYEHMPSGIDDLTIIFKKDALSDQLIDVICNEIQTSLNPDQMQWIDDYAITMVVGEGMKDKLTLCASILYPLGEKNISIQMINQGASQISIMIGTRRQDEEEVIKTIYQNFIENR”, with “not soluble”. With “MRGSAFNGKWETESQEGYEPFCKLIGIPDDVIAKGRDFKLVTEIVQNGDDFTWTQYYPNNHVVTNKFIVGKESDMETVGGKKFKGIVSMEGGKLTISFPKYQQTTEISGGKLVETSTASGAQGTAVLVRTSKKVLVPR”, the “soluble on expression in E. coli” value is recorded as “soluble”. Then “GSMKTIKVKNKTEGSKVAFRMLEEEITFGAKTLGLATGSTPLELYKEIRESHLDFSDMVSINLDEYVGLSADDKQSYAYFMKQNLFAAKPFKKSYLPNGLAADLAKETEYYDQILAQYPIDLQILGIGRNAHIGFNEPGTAFSSQTHLVDLTPSTIAANSRFFEKAEDVPKQAISMGLASIMSAKMILLMAFGEEKAEAVAAMVKGPVTEEIPASILQTHPKVILIVDEKAGAGI”, with “soluble”.

As to “FCLTLRRRYTMGHHHHHHHHHHSSGHIEGRHMKLEQTLTLSPNLIGFNSNEGEKLLLTSRSREDFFPLSMQFVTQVNQAYCGVASIIMVLNSLGINAPETAQYSPYRVFTQDNFFSNEKTKAVIAPEVVARQGMTLDELGRLIASYGVKVKVNHASDTNIEDFRKQVAENLKQDGNFVIVNYLRKEIGQERGGHISPLAAYNEQTDRFLIMDVSRYKYPPVWVKTTDLWKAMNTVDSVSQKTRGFVFVSKTQDD”, the “soluble on expression in E. coli” value is on record as “soluble”. Then “EETAKEVMTSRLDMVDLEINTPYSDVLKCIVENAYSRIPVYAESRDNIKGILYIKDLLPHLGKGDNFRWQTLVRPAYFVPETKMIDDLLRDFQANKIHIAIVVDEFGGTSGIVTMEDIIEEIVGEINDEYDD”, with “soluble”; and “MAILAFDLGGSSVKYGVWTGKELTNQGSFPTPGSWEEMKAHLYSVYADKRNESISGVAFSSPGVVDEKSQQILGISAIPYIHHFNIYEELEALFGLPVTIENDANCAGLAEIYEGAAKGKKEVLFVVIGTGIGGAIFRNGELYKGAHLYGGEFGLNFLSNGQTFSEIGTAVKMAQRYCERIGVEKQAVTGEEVFELAQRGDEIAREEVNNFYDYLTQGLFGLQFSYDPEMIVLGGGVSAKEGLLAEINRRMLTHLQTFELKDFVPEIVTCHYQNDANLIGAAANFQAKTNWEL”, with “not soluble”. The result for “MVKSFLMLGQSNMAGRGFINEVPMIYNERIQMLRNGRWQMMTEPINYDRPVSGISLAGSFADAWSQKNQEDIIGLIPCAEGGSSIDEWALDGVLFRHALTEAKFAMESSELTGILWHQGESDSLNGNYKVYYKKLLLIIEALRKELNVPDIPIIIGGLGDFLGKERFGKGCTEYNFINKELQKFAFEQDNCYFVTASGLTCNPDGIHIDAISQRKFGLRYFEAFFNRKHVLEPLINENELLNLNYARTHTKAEKIYIKSMDFALGKISYDEFTSELMKINNDLEHHHHHH” reads “soluble”.

For the sequence “MKTIGLLGGMSWESTIPYYRLINEGIKQRLGGLHSAQMLLHSVDFHEIEECQRRGEWDKTGDILAEAALGLQRAGAEGIVLCTNTMHKVADAIESRCTLPFLHIADATGRAITGAGMTRVALLGTRYTMEQDFYRGRLTEQFSINCLIPEADERAKINQIIFEELCLGQFTEASRAYYAQVIARLAEQGAQGVIFGCTEIGLLVPEERSVLPVFDTAAIHAEDAVAFMLS”, the “soluble on expression in E. coli” value is “not soluble”. Then “WLSGYAGPADGTQQPDAPEHAVAREALVDLCRRRHFLSGTPQQLSTAALLSGCHARFGPLGVELRKNLASQWWSSMVVFREQVFAVDSLHQEPGSSQPRDSAFRLVSPESIREILQDREPSKEQLVAFLENLLKTSGKLRATLLHGALEHYVNCLDLVNRKLPFGLAQIGVCFHPVSNSNQTPSSVTRVGEKTEASLVWFTPTRTSSQWLDFWLRHRLLWWRKFAMSPSNFSSADCQDELGRKGSKLYYSFPWGKEPIETLWNLGDQELLHTYPGNVSTIQGRDGRKNVVPCVLSVSGDVDLGTLAYLYDSFQLAENSFARKKSLQRKVLKLHPCLAPIKVALDVGKGPTVELRQVCQGLLNELLENGISVWPGYSETVHSSLEQLHSKYDEMSVLFSVLVTETTLENGLIQLRSRDTTMKEMMHISKLRDFLVKYLASASNVAAALDHHHHHH”, with “soluble”.
